# Results: the supplement of paper PMC9170038
# Test system: MS2 coat protein
# Assay: apparent KD of MS2 coat protein; designed switch direction (-1 OFF switch, 1 ON switch): -1; higher = weaker reporter binding
# Outline: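 Designed RNA switches sharing common flanks were transcribed on Illumina chips by stalled E. coli RNA polymerase. They were titrated with SNAP-549-labelled MS2 coat protein, from 0.7 or 1.5 nM doubling to 3 µM, in Tris-HCl pH 7.5 buffer with KCl, MgCl2, BSA, DTT, tRNA and Tween-20. Titrations ran without input, with 200 uM small-molecule ligand, or with an oligonucleotide input. The apparent KD of each design is the median over its clusters, after curve-fitting of normalised cluster fluorescence.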
# [1] = input ligand: microRNA oligo, concentration not stated
# [2] = Eterna round: R95, input ligand: FMN 200 uM
# [3] = Eterna round: R95, input ligand: microRNA oligo, concentration not stated
# [4] = Eterna round: R95, input ligand: none
sequence,measurement,setting,value
"AGUCAAGAUGAGGAUAUCCGUGUAACAAACGCAGGAGAAGGCGUCACAUGAGGAUCACCCAUGUUGCCUCUAAG [Eternabot (L1) Solution 92] (Eterna round: R97, puzzle: Exclusion 6)",apparent KD of MS2 coat protein,input ligand: FMN 200 uM,45.9 nM
same,apparent KD of MS2 coat protein,input ligand: none,58.1 nM
"AGUCAGGCGGUAGGAUAUCCAAAUCGAGUGACCCUUUCAUAACAUGAGGAUCACCCAUGUCGGUGGGAGAAGGGCCGUACGGCG [JL ViennaUCT Atra mod 3] (Eterna round: R96, puzzle: Exclusion NG 2)",apparent KD of MS2 coat protein,input ligand: FMN 200 uM,232 nM
same,apparent KD of MS2 coat protein,[1],88 nM
same,apparent KD of MS2 coat protein,input ligand: none,104 nM
"AGUCCACUUACAAGCUUUUACAUGAGGAUCACCCAUGUGUGGGACCCUAAGGGUGCUCAUGACCGCUCCAUACUCUC [Eternabot (L1) Solution 4] (Eterna round: R97, puzzle: Sensor, turn-off variant 1)",apparent KD of MS2 coat protein,input ligand: FMN 200 uM,240 nM
same,apparent KD of MS2 coat protein,input ligand: none,254 nM
"AGUCGGUCAGGAUAUGCAAACGUGGACAUGAGGAUCACCCAUGUAACGUGGGCCUGGUUUGUAGAAGGGACGAGCA [EX5 #86] (Eterna round: R97, puzzle: Exclusion 5)",apparent KD of MS2 coat protein,input ligand: FMN 200 uM,35.1 nM
same,apparent KD of MS2 coat protein,input ligand: none,34.5 nM
"AGUCGUAGACAGGAUAUGCGGCUAAUAAAUAAAGCAGAAGGGUCUACUUGAGGAUCACCCAAGUGGGCGGUUAA [jl-ex6-4.19 ViennaUCT mod] (Eterna round: R97, puzzle: Exclusion 6)",apparent KD of MS2 coat protein,input ligand: FMN 200 uM,104 nM
same,apparent KD of MS2 coat protein,input ligand: none,20.8 nM
AGUGCGUAUGUGAGGAUAUGCUGGUCCUUGGAUCAGCAGAAGGCACAUGAGGAUCACCCAUGUGGUGUCGUACG [salish99_Bmod_Ex4_004] (puzzle: Brourd's mod of Exclusion 4),apparent KD of MS2 coat protein,[2],245 nM
same,apparent KD of MS2 coat protein,[3],51.8 nM
same,apparent KD of MS2 coat protein,[4],60 nM
"AGUGUGGAGACAGGAUAUGAGAAUAGAUAGAAAUCAGAAGGGUCACAUGAGGAUCACCCAUGUAAAGUCUUGAGGAUGAGUGAU [Prohibition 2 - Jieux - Exclusion NG 1] (Eterna round: R96, puzzle: Exclusion NG 1)",apparent KD of MS2 coat protein,input ligand: FMN 200 uM,263 nM
same,apparent KD of MS2 coat protein,[1],63.9 nM
same,apparent KD of MS2 coat protein,input ligand: none,88.8 nM
"AGUGUGUGGCAGGAUAUGCGAUUUGUAGGUGAAGCAGAAGGGUCUACAUGAGGAUCACCCAUGUGUGCGGUUGA [Ex6 #18] (Eterna round: R97, puzzle: Exclusion 6)",apparent KD of MS2 coat protein,input ligand: FMN 200 uM,457 nM
same,apparent KD of MS2 coat protein,input ligand: none,216 nM
AGUUGGCGAGGAUAUACAUGAGGAUCACCCAUGUGAGAGAAAAAAGUGAGGAAGAAAAGUAGAAGGCGCUGACG [salish99_ex3_r3_040] (puzzle: Exclusion 3),apparent KD of MS2 coat protein,[2],61.2 nM
same,apparent KD of MS2 coat protein,[3],38.5 nM
same,apparent KD of MS2 coat protein,[4],40.1 nM
"AGUUGGCGAGGAUAUACAUGAGGAUCACCCAUGUGAGAGAUACUAGUGAGGUCGAUUAGGAGAAGGCGCUGACA [Mat X3R4 m20] (Eterna round: R97, puzzle: Exclusion 3)",apparent KD of MS2 coat protein,input ligand: FMN 200 uM,63.1 nM
same,apparent KD of MS2 coat protein,input ligand: none,48 nM
AGUUGGCGAGGAUAUACAUGAGGAUCACCCAUGUGAGAGAUACUAGUGAGGUCGAUUAGUAGAAGGCGCUGACA [Mat - Exclusion 3 - Mod of JL D77] (puzzle: Exclusion 3),apparent KD of MS2 coat protein,[3],31.6 nM
AUAAAGAAUGUUAGGAUAUUGGUGAAUAGGCUGACUAAGAAGGAACAUGAGGAUCACCCAUGUAAAAUGGAAAA [Readima] (puzzle: Brourd's mod of Exclusion 4),apparent KD of MS2 coat protein,[2],66.7 nM
same,apparent KD of MS2 coat protein,[3],23 nM
same,apparent KD of MS2 coat protein,[4],29.1 nM
"AUAAAGUGAGGAUAUAUAAGACACGGUGAUACACCGUGAAAAUAGAAGGUACAUGAGGAUCACCCAUGUAGGGC [Mod of Anonveat 18 - Jieux - Exclusion 4] (Eterna round: R97, puzzle: Exclusion 4)",apparent KD of MS2 coat protein,input ligand: FMN 200 uM,33.6 nM
same,apparent KD of MS2 coat protein,input ligand: none,29.4 nM
"AUAAAGUGAGGAUAUAUAAGACACGGUGAUACACCGUGAAAAUAGAAGGUACAUGAGGAUCACCCAUGUUGGGC [Mod of Anonveat 19 - Jieux - Exclusion 4] (Eterna round: R97, puzzle: Exclusion 4)",apparent KD of MS2 coat protein,input ligand: FMN 200 uM,50.2 nM
same,apparent KD of MS2 coat protein,input ligand: none,53.7 nM
"AUAAAUCAUGUAGGAUAUGCGUAGCGAAGCUAUGCAGAAGGACAUGAGGAUCACCCAUGUCUUUCCGUCUGCGAACAGACGGAA [Mat - Exclusion NG 1 - Mod of JL - D43] (Eterna round: R96, puzzle: Exclusion NG 1)",apparent KD of MS2 coat protein,input ligand: FMN 200 uM,199 nM
same,apparent KD of MS2 coat protein,[1],20 nM
same,apparent KD of MS2 coat protein,input ligand: none,31.6 nM
"AUAACAAGCUUUUUUUUCGUCGUAUAUGACGCUCGAGUCACAUGAGGAUCACCCAUGUCUUCCUGUUUGAUUGUUGA [JR_SV3TOV2_Sub057] (puzzle: Sensor v3, turn-off variant 2)",apparent KD of MS2 coat protein,[2],167 nM
same,apparent KD of MS2 coat protein,[3],154 nM
same,apparent KD of MS2 coat protein,[4],173 nM
"AUAAGUAUGAAGGAUAUGCGCGAGCCAGCUUGGGCAGAAGGUUAAACAUGAGGAUCACCCAUGUGGAAAUCCGA [Eternabot (Original) Solution 34] (Eterna round: R97, puzzle: Exclusion 6)",apparent KD of MS2 coat protein,input ligand: FMN 200 uM,32.9 nM
same,apparent KD of MS2 coat protein,input ligand: none,21.7 nM
"AUAAUGUAAGGAUAUCAGUCGACUAGCCUCGGCUAGUCGACUGAGAAGGUACAUGAGGAUCACCCAUGUGAAUA [E4/16-A2] (Eterna round: R97, puzzle: Exclusion 4)",apparent KD of MS2 coat protein,input ligand: FMN 200 uM,228 nM
same,apparent KD of MS2 coat protein,input ligand: none,52.1 nM
"AUAAUGUAAGGAUAUCAGUCGACUAGCUUCGGCUAGUCGACUGAGAAGGUACAUGAGGAUCACCCAUGUGGUUC [E4/11-A1] (Eterna round: R97, puzzle: Exclusion 4)",apparent KD of MS2 coat protein,input ligand: FMN 200 uM,118 nM
same,apparent KD of MS2 coat protein,input ligand: none,985 nM
"AUAAUGUCAGGAUAUCAGAAGUUUAACUUCGGUUAAACUUCUGAGAAGGGACAUGAGGAUCACCCAUGUGAUUA [E4/3-B1] (Eterna round: R97, puzzle: Exclusion 4)",apparent KD of MS2 coat protein,input ligand: FMN 200 uM,109 nM
same,apparent KD of MS2 coat protein,input ligand: none,1330 nM
"AUAAUUAAUCGAGGAUAUCAGCACGAUUAGUGCUGAGAAGGCGACAUGAGGAUCACCCAUGUGAUCAAUUAAUAUUAAUAUUAU [ENG1/11-C1] (Eterna round: R96, puzzle: Exclusion NG 1)",apparent KD of MS2 coat protein,input ligand: FMN 200 uM,1630 nM
same,apparent KD of MS2 coat protein,[1],626 nM
same,apparent KD of MS2 coat protein,input ligand: none,808 nM
"AUAAUUAAUGCAGGAUAUCAGCACGAUUAGUGCUGAGAAGGGCACAUGAGGAUCACCCAUGUGAUCAAUUAAUAUUAAUAUUAU [ENG1/11-D1] (Eterna round: R96, puzzle: Exclusion NG 1)",apparent KD of MS2 coat protein,input ligand: FMN 200 uM,279 nM
same,apparent KD of MS2 coat protein,[1],53 nM
same,apparent KD of MS2 coat protein,input ligand: none,61.6 nM
AUACAACAUGAGGAUCACCCAUGUGAGGAUAUGCGAUAUAUCAUCAUCAUAAUCAUAAGCAGAAGGCACAACAU [Another One] (puzzle: Exclusion 1),apparent KD of MS2 coat protein,[2],35.7 nM
same,apparent KD of MS2 coat protein,[3],35.6 nM
same,apparent KD of MS2 coat protein,[4],34 nM
"AUACAGGAUGUCAGGAUAUGUUGUAGGUUCCGACGACAGAAGGGACAUGAGGAUCACCCAUGUAGGCCUUUGCU [BmEX4 C.7] (Eterna round: R97, puzzle: Brourd's mod of Exclusion 4)",apparent KD of MS2 coat protein,input ligand: FMN 200 uM,31.4 nM
same,apparent KD of MS2 coat protein,input ligand: none,15.1 nM
AUAUAACAUGAGGAUCACCCAUGUCAGGAUAUGCAGAACAAGAACAAGACAAGACAGAGCAGAAGGGACAAUAU [Ex 1 M4] (puzzle: Exclusion 1),apparent KD of MS2 coat protein,[2],43.8 nM
same,apparent KD of MS2 coat protein,[3],34.9 nM
same,apparent KD of MS2 coat protein,[4],48.1 nM
"AUAUAGCGAGGAUAUACAUGAGGAUCACCCAUGUAAUAAAUAUAUAUAUUUAUAUUAUGUAGAAGGCGCUAUAU [-18.5, -17.2 kcal, 39% A] (Eterna round: R97, puzzle: Exclusion 3)",apparent KD of MS2 coat protein,input ligand: FMN 200 uM,30.3 nM
same,apparent KD of MS2 coat protein,input ligand: none,14.5 nM
"AUAUCGUGAGGAUAUCCAAUAUAUGACAUGAGGAUCACCCAUGUUUCCACUCGUACCUCCGGAGAAGGCACAGUUA [Ex5 #72] (Eterna round: R97, puzzle: Exclusion 5)",apparent KD of MS2 coat protein,input ligand: FMN 200 uM,23.9 nM
same,apparent KD of MS2 coat protein,input ligand: none,24.5 nM
"AUAUUAAUAGUAAGGAUAUGCGUAUAUAUAGUUAUGCAGAAGGUACAUGAGGAUCACCCAUGUAUUAAUGUGUA [LRO-BmodExc4-03-Oppy's Opus] (Eterna round: R97, puzzle: Brourd's mod of Exclusion 4)",apparent KD of MS2 coat protein,input ligand: FMN 200 uM,14.9 nM
same,apparent KD of MS2 coat protein,input ligand: none,14.3 nM
"AUAUUAGCAGGAUAUAUCCGGGAUAACAUGAGGAUCACCCAUGUGACCGCUUGAUAUCCUAUAGAAGGGCUUUAUA [Mod of ViennaUCT 29 - Jieux - Exclusion 5] (Eterna round: R97, puzzle: Exclusion 5)",apparent KD of MS2 coat protein,input ligand: FMN 200 uM,35.3 nM
same,apparent KD of MS2 coat protein,input ligand: none,20.6 nM
"AUAUUGUGAGGAUAUGAACUUAGUAUCGAAAGAUACUAAGUACAGAAGGCACAUGAGGAUCACCCAUGUUUCUC [Long static hairpin v2] (Eterna round: R97, puzzle: Exclusion 4)",apparent KD of MS2 coat protein,input ligand: FMN 200 uM,418 nM
same,apparent KD of MS2 coat protein,input ligand: none,85.7 nM
"AUCAGCUCGUGAGGAUAUACAUGCGUGCUUCGGCACGUAUGAUAGAUCACAUGAGGAUCACCCAUGUAGAAGGCACGAGCUGAU [ENG2/4-A3] (Eterna round: R96, puzzle: Exclusion NG 2)",apparent KD of MS2 coat protein,input ligand: FMN 200 uM,15.1 nM
same,apparent KD of MS2 coat protein,[1],12.1 nM
same,apparent KD of MS2 coat protein,input ligand: none,13.4 nM
"AUCAGCUCGUGAGGAUAUAUUAACAUGAGGAUCACCCAUGUAAGAUCAGGCUUCGGCCAAUGUUAAUAGAAGGCACGAGCUGAU [ENG2/12-A2] (Eterna round: R96, puzzle: Exclusion NG 2)",apparent KD of MS2 coat protein,input ligand: FMN 200 uM,239 nM
same,apparent KD of MS2 coat protein,[1],56.3 nM
same,apparent KD of MS2 coat protein,input ligand: none,170 nM
"AUCAGUCGAGGAUAUACGAUCGUGCUUCGGCACGUAAGAUCACAUGAGGAUCACCCAUGUAGAAGGCGACUGAU [Mod 8 - Jieux - Exclusion 2] (Eterna round: R97, puzzle: Exclusion 2)",apparent KD of MS2 coat protein,input ligand: FMN 200 uM,463 nM
same,apparent KD of MS2 coat protein,input ligand: none,30.4 nM
